Target: Zif268 DNA-binding domain (UniProt P08046 P08046:333-421)
Assay: apparent; text states optimised peptide Kd equals that of wild-type Zif268; curve only in FIG. 7

B1: Zif268 consensus site (dsDNA)
DNA 1: GCGTGGGCG
DNA 2: CGCCCACGC
B1 was tested, and the Kd was 3 nM.

Reference: patent US6866997, “Nucleic acid binding proteins” (Gendaq Limited)
